Data published in the supplement of paper PMC10567573.

B1: CAMK2A (parent)
chain: CIQQILEAVLHCHQMGVVHRDLKP
B2: INTS4 (parent)
chain: YSSGEFSSGRKWGDDAPKEEVDTG

Variants of: B1
Assay: protein stability index of a GFP-peptide fusion (GPS, HEK-293T) (PSI 1-6); higher = more stable
Conditions: c terminus: a fixed tail appended
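Also: lentivirally expressed fusions sorted by FACS into six bins by GFP to DsRed ratio, PSI derived from sequencing read proportions per bin multiplied by bin number.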

| Variant | protein stability index |
| --- | --- |
| CIQQILEAVLHCHQMGVVHRDLWP [K23W] | 3.83 |
| CIQQILEAVLHCHQMGVVHRDLYP [K23Y] | 3.71 |
| CIQQILEAVLHCHQMGVVHRDLKC [P24C] | 1.95 |
| CIQQILEAVLHCHQMGVVHRDLKD [P24D] | 2.99 |
| CIQQILEAVLHCHQMGVVHRDLKF [P24F] | 2.58 |
| CIQQILEAVLHCHQMGVVHRDLKG [P24G] | 2.88 |
| CIQQILEAVLHCHQMGVVHRDLKI [P24I] | 3.7 |
| CIQQILEAVLHCHQMGVVHRDLKK [P24K] | 2.31 |
| CIQQILEAVLHCHQMGVVHRDLKL [P24L] | 1.78 |
| CIQQILEAVLHCHQMGVVHRDLKM [P24M] | 3.07 |
| CIQQILEAVLHCHQMGVVHRDLKQ [P24Q] | 1.86 |
| CIQQILEAVLHCHQMGVVHRDLKR [P24R] | 2.44 |
| CIQQILEAVLHCHQMGVVHRDLKS [P24S] | 2.12 |
| CIQQILEAVLHCHQMGVVHRDLKW [P24W] | 1.82 |
| CIQQILEAVLHCHQMGVVHRDLKY [P24Y] | 3 |

Variants of: B2
Assay: as above
Conditions: c terminus: a fixed tail appended

| Variant | protein stability index |
| --- | --- |
| ASSGEFSSGRKWGDDAPKEEVDTG [Y1A] | 4.93 |
| CSSGEFSSGRKWGDDAPKEEVDTG [Y1C] | 3.87 |
| DSSGEFSSGRKWGDDAPKEEVDTG [Y1D] | 5.8 |
| ESSGEFSSGRKWGDDAPKEEVDTG [Y1E] | 5.74 |
| GSSGEFSSGRKWGDDAPKEEVDTG [Y1G] | 5.47 |
| HSSGEFSSGRKWGDDAPKEEVDTG [Y1H] | 5.51 |
| ISSGEFSSGRKWGDDAPKEEVDTG [Y1I] | 5.55 |
| KSSGEFSSGRKWGDDAPKEEVDTG [Y1K] | 5.62 |
| LSSGEFSSGRKWGDDAPKEEVDTG [Y1L] | 5.79 |
| MSSGEFSSGRKWGDDAPKEEVDTG [Y1M] | 5.39 |
| NSSGEFSSGRKWGDDAPKEEVDTG [Y1N] | 5.22 |
| PSSGEFSSGRKWGDDAPKEEVDTG [Y1P] | 5.42 |
| QSSGEFSSGRKWGDDAPKEEVDTG [Y1Q] | 5.66 |
| RSSGEFSSGRKWGDDAPKEEVDTG [Y1R] | 5.71 |
| SSSGEFSSGRKWGDDAPKEEVDTG [Y1S] | 5.81 |
| TSSGEFSSGRKWGDDAPKEEVDTG [Y1T] | 5.12 |
| VSSGEFSSGRKWGDDAPKEEVDTG [Y1V] | 5.8 |
| WSSGEFSSGRKWGDDAPKEEVDTG [Y1W] | 4.52 |
| YASGEFSSGRKWGDDAPKEEVDTG [S2A] | 2.28 |
| YCSGEFSSGRKWGDDAPKEEVDTG [S2C] | 2.04 |
| YDSGEFSSGRKWGDDAPKEEVDTG [S2D] | 5.77 |
| YESGEFSSGRKWGDDAPKEEVDTG [S2E] | 5.4 |
| YFSGEFSSGRKWGDDAPKEEVDTG [S2F] | 4.02 |
| YGSGEFSSGRKWGDDAPKEEVDTG [S2G] | 1.95 |
| YHSGEFSSGRKWGDDAPKEEVDTG [S2H] | 1.48 |
| YISGEFSSGRKWGDDAPKEEVDTG [S2I] | 2.42 |
| YKSGEFSSGRKWGDDAPKEEVDTG [S2K] | 5.2 |

| Variant | protein stability index |
| --- | --- |
| YLSGEFSSGRKWGDDAPKEEVDTG [S2L] | 3.48 |
| YMSGEFSSGRKWGDDAPKEEVDTG [S2M] | 3.97 |
| YNSGEFSSGRKWGDDAPKEEVDTG [S2N] | 4.64 |
| YPSGEFSSGRKWGDDAPKEEVDTG [S2P] | 2.31 |
| YQSGEFSSGRKWGDDAPKEEVDTG [S2Q] | 2.48 |
| YRSGEFSSGRKWGDDAPKEEVDTG [S2R] | 5.05 |
| YTSGEFSSGRKWGDDAPKEEVDTG [S2T] | 2.67 |
| YVSGEFSSGRKWGDDAPKEEVDTG [S2V] | 1.59 |
| YWSGEFSSGRKWGDDAPKEEVDTG [S2W] | 3.81 |
| YYSGEFSSGRKWGDDAPKEEVDTG [S2Y] | 4.92 |
| YSAGEFSSGRKWGDDAPKEEVDTG [S3A] | 4.89 |
| YSCGEFSSGRKWGDDAPKEEVDTG [S3C] | 4.1 |
| YSDGEFSSGRKWGDDAPKEEVDTG [S3D] | 5.15 |
| YSEGEFSSGRKWGDDAPKEEVDTG [S3E] | 5.22 |
| YSFGEFSSGRKWGDDAPKEEVDTG [S3F] | 3.93 |
| YSGGEFSSGRKWGDDAPKEEVDTG [S3G] | 3.5 |
| YSHGEFSSGRKWGDDAPKEEVDTG [S3H] | 4.43 |
| YSIGEFSSGRKWGDDAPKEEVDTG [S3I] | 4.01 |
| YSKGEFSSGRKWGDDAPKEEVDTG [S3K] | 4.51 |
| YSLGEFSSGRKWGDDAPKEEVDTG [S3L] | 4.59 |
| YSMGEFSSGRKWGDDAPKEEVDTG [S3M] | 3.91 |
| YSNGEFSSGRKWGDDAPKEEVDTG [S3N] | 4.08 |
| YSPGEFSSGRKWGDDAPKEEVDTG [S3P] | 4.1 |
| YSQGEFSSGRKWGDDAPKEEVDTG [S3Q] | 3.86 |
| YSRGEFSSGRKWGDDAPKEEVDTG [S3R] | 4.47 |
| YSTGEFSSGRKWGDDAPKEEVDTG [S3T] | 3.83 |
| YSVGEFSSGRKWGDDAPKEEVDTG [S3V] | 4.77 |

| Variant | protein stability index |
| --- | --- |
| YSWGEFSSGRKWGDDAPKEEVDTG [S3W] | 2.89 |
| YSYGEFSSGRKWGDDAPKEEVDTG [S3Y] | 4.13 |
| YSSAEFSSGRKWGDDAPKEEVDTG [G4A] | 3.56 |
| YSSCEFSSGRKWGDDAPKEEVDTG [G4C] | 3.61 |
| YSSDEFSSGRKWGDDAPKEEVDTG [G4D] | 4.57 |
| YSSEEFSSGRKWGDDAPKEEVDTG [G4E] | 4.08 |
| YSSFEFSSGRKWGDDAPKEEVDTG [G4F] | 3.6 |
| YSSHEFSSGRKWGDDAPKEEVDTG [G4H] | 4.42 |
| YSSIEFSSGRKWGDDAPKEEVDTG [G4I] | 4.11 |
| YSSKEFSSGRKWGDDAPKEEVDTG [G4K] | 3.31 |
| YSSLEFSSGRKWGDDAPKEEVDTG [G4L] | 3.33 |
| YSSMEFSSGRKWGDDAPKEEVDTG [G4M] | 3.75 |
| YSSNEFSSGRKWGDDAPKEEVDTG [G4N] | 4.01 |
| YSSPEFSSGRKWGDDAPKEEVDTG [G4P] | 3.11 |
| YSSQEFSSGRKWGDDAPKEEVDTG [G4Q] | 3.92 |
| YSSREFSSGRKWGDDAPKEEVDTG [G4R] | 2.22 |
| YSSSEFSSGRKWGDDAPKEEVDTG [G4S] | 4.02 |
| YSSTEFSSGRKWGDDAPKEEVDTG [G4T] | 3.61 |
| YSSVEFSSGRKWGDDAPKEEVDTG [G4V] | 3.87 |
| YSSWEFSSGRKWGDDAPKEEVDTG [G4W] | 2.43 |
| YSSYEFSSGRKWGDDAPKEEVDTG [G4Y] | 3.91 |
| YSSGAFSSGRKWGDDAPKEEVDTG [E5A] | 2.75 |
| YSSGCFSSGRKWGDDAPKEEVDTG [E5C] | 1.84 |
| YSSGDFSSGRKWGDDAPKEEVDTG [E5D] | 3.64 |
| YSSGFFSSGRKWGDDAPKEEVDTG [E5F] | 1.76 |
